# Reference: the supplement of paper PMC7877785
# ± gives the uncertainty stated by the source.
# Test: self-splicing fitness, log relative to wild type (ln ratio); higher = more splicing; Tetrahymena group I intron in knt gene, E. coli kanamycin selection, DiMSum; sequences stand for … in CUCUCU…GGAGGGAAAAGUUAUCAGGCAUGCACCUGGUAGCUAGUCUUUAAACCAAUAGAUUGCAUCGGUUUAAAAGGCAAGACCGUCAAAUUGCGGGAAAGGGGUCAACAGCCGUUCAGUACCAAGUCUCAGGGGAAACUUUGAGAUGGCCUUGCAAAGGGUAUGGUAAUAAGCUGACGGACAUGGUCCUAACCACGCAGCCAAGUCCUAAGUCAACAGAUCUUCUGUUGAUAUGGAUGCAGUUCACAGACUAAAUGUCGGUCGGGGAAGAUGUAUUCUUCUCAUAAGAUAUAGUCGGACCUCUCCUUAAUGGGAGCUAGCGGAUGAAGUGAUGCAACACUGGAGCCGCUGGGAACUAAUUUGUAUGCGAAAGUAUAUUGAUUAGUUUUGGAGUACUCGUGGUCG
# Summary of the method: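 A randomised library covering all eight P1ex-region intron nucleotides was built with the intron in the knt kanamycin-resistance gene on pET-22b(+) and held in E. coli BL21(DE3). Cells were grown overnight at 37°C or 30°C on LB agar, with or without 25 μg/mL kanamycin, plus 100 μg/mL carbenicillin, 50 μM IPTG and 0.2% rhamnose, and pooled colonies were amplicon-sequenced on an Illumina HiSeq 2500. DiMSum fitness is the error-weighted combination of wild-type-normalised replicate fold changes, kanamycin versus none.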
Sequence,self-splicing fitness (ln) (30 °C),self-splicing fitness (ln) (37 °C)
AUACAGCAAUAUUACGCGUA,-1.76 ± 0.11,-0.809 ± 0.097
AUACAGCAAUAUUACGCUAU,-3.03 ± 0.11,-1.29 ± 0.087
AUACAGCAAUAUUACGGCCG,-1.33 ± 0.16,-1.14 ± 0.23
AUACAGCAAUAUUACGGCUC,-0.178 ± 0.075,0.157 ± 0.1
AUACAGCAAUAUUACGGGUA,-1.24 ± 0.078,-0.645 ± 0.078
AUACAGCAAUAUUACGGGUG,-1.63 ± 0.065,-1 ± 0.073
AUACAGCAAUAUUACGGGUU,-1.9 ± 0.071,-1.05 ± 0.077
AUACAGCAAUAUUACGUAUU,-3.18 ± 0.16,-2.54 ± 0.2
AUACAGCAAUAUUACGUCCU,-0.382 ± 0.073,1.06 ± 0.096
AUAGAGCAAUAUUACGAUAC,-0.998 ± 0.12,-0.0688 ± 0.19
AUAGAGCAAUAUUACGAUCU,-0.131 ± 0.12,-0.042 ± 0.17
AUAGAGCAAUAUUACGAUGG,-2.76 ± 0.21,-2.02 ± 0.31
AUAGAGCAAUAUUACGAUUG,-3.46 ± 0.2,-1.33 ± 0.15
AUAGAGCAAUAUUACGCAAC,,-1.78 ± 0.41
AUAGAGCAAUAUUACGCAGU,-1.73 ± 0.16,-0.369 ± 0.19
AUAGAGCAAUAUUACGCAUU,-1.19 ± 0.096,-0.296 ± 0.1
AUAGAGCAAUAUUACGCCUA,-0.415 ± 0.11,0.144 ± 0.15

Sequence,self-splicing fitness (ln) (30 °C),self-splicing fitness (ln) (37 °C)
AUAGAGCAAUAUUACGCCUC,-1.52 ± 0.24,-0.831 ± 0.5
AUAGAGCAAUAUUACGCGGC,-3.33 ± 0.35,-1.78 ± 0.25
AUAGAGCAAUAUUACGGACU,-1.15 ± 0.13,-1.65 ± 0.23
AUAGAGCAAUAUUACGGCCC,-1.68 ± 0.17,-0.799 ± 0.3
AUAGAGCAAUAUUACGGGGC,-3.43 ± 0.43,-2.51 ± 0.41
AUAGAGCAAUAUUACGGUAA,-1.76 ± 0.15,-1.42 ± 0.17
AUAGAGCAAUAUUACGGUCA,-1.48 ± 0.14,-0.634 ± 0.21
AUAGAGCAAUAUUACGUACC,-3.3 ± 0.16,-1.3 ± 0.15
AUAGAGCAAUAUUACGUCAG,-3.64 ± 0.28,-2.66 ± 0.23
AUAGAGCAAUAUUACGUCCA,-2.35 ± 0.21,-0.672 ± 0.2
AUAGAGCAAUAUUACGUCGG,-3.26 ± 0.14,-2.27 ± 0.17
AUAUAGCAAUAUUACGAAAU,-1.01 ± 0.21,-1.72 ± 0.28
AUAUAGCAAUAUUACGAACA,-0.789 ± 0.2,-0.183 ± 0.21
AUAUAGCAAUAUUACGAAUU,-2.52 ± 0.16,-0.909 ± 0.14
AUAUAGCAAUAUUACGACCC,-1.24 ± 0.28,
AUAUAGCAAUAUUACGACUU,0.217 ± 0.073,-0.272 ± 0.075
AUAUAGCAAUAUUACGAUAC,-1.66 ± 0.35,-0.756 ± 0.26
